Reference: patent publication US20100129369A1 (Eli Lilly, published 2010)

Assays:
PlexinA2-ECD-Fc [1] = molecular target: T1, PlexinA2-ECD-Fc (human, UniProt O75051 35-1237); assay: ELISA, coated ECD-Fc, antibody 0.000 ng/mL
T1 construct: extracellular domain; Bought reagent
T1 sequence (looked up): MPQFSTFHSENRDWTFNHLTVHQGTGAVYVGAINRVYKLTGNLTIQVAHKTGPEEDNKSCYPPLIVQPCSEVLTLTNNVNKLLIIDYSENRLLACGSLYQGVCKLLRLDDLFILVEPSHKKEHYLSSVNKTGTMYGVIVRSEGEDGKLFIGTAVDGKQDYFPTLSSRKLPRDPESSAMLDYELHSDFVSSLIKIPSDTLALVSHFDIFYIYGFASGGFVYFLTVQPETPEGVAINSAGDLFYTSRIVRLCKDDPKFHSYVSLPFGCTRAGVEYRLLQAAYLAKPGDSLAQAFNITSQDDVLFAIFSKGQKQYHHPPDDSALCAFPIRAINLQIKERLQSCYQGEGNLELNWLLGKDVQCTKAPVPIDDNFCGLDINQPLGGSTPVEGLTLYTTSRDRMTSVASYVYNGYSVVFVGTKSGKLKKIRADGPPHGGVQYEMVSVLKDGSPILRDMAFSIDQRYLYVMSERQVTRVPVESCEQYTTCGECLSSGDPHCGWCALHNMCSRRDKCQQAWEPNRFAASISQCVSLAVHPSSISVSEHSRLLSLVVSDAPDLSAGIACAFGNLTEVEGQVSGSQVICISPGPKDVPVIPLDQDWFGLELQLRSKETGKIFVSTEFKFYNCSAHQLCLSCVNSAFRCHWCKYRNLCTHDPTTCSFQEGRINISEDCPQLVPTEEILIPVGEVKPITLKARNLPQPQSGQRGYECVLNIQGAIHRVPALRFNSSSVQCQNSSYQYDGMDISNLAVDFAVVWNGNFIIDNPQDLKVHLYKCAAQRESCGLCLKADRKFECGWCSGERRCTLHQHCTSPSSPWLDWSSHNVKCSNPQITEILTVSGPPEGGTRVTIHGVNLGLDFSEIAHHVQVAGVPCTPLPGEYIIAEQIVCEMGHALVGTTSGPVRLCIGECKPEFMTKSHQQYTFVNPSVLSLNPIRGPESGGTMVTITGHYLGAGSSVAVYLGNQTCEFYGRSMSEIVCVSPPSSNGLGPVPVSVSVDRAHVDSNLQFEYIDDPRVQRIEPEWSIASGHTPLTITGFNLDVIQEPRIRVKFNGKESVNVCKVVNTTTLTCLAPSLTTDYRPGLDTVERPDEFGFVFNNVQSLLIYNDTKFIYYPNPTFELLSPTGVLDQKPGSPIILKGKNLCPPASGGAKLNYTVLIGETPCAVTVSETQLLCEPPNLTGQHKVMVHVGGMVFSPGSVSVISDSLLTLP

Human c-Met-Flis-Fc ECD [2] = molecular target: T2, Human c-Met-Flis-Fc ECD (human); assay: ELISA, coated ECD-Fc, antibody 0.000 ng/mL
T2 construct: also called human c-Met extracellular domain (ECD)-Fc-Flis fusion; Human cMet-ECD-Fc-Flis

RON-ECD-Fc = molecular target: T3, RON-ECD-Fc (human, UniProt Q04912 25-957); assay: ELISA, coated ECD-Fc, antibody 2777.778 ng/mL
T3 construct: extracellular domain; Bought reagent; not shown: Fc part of the bought fusion
T3 sequence (looked up): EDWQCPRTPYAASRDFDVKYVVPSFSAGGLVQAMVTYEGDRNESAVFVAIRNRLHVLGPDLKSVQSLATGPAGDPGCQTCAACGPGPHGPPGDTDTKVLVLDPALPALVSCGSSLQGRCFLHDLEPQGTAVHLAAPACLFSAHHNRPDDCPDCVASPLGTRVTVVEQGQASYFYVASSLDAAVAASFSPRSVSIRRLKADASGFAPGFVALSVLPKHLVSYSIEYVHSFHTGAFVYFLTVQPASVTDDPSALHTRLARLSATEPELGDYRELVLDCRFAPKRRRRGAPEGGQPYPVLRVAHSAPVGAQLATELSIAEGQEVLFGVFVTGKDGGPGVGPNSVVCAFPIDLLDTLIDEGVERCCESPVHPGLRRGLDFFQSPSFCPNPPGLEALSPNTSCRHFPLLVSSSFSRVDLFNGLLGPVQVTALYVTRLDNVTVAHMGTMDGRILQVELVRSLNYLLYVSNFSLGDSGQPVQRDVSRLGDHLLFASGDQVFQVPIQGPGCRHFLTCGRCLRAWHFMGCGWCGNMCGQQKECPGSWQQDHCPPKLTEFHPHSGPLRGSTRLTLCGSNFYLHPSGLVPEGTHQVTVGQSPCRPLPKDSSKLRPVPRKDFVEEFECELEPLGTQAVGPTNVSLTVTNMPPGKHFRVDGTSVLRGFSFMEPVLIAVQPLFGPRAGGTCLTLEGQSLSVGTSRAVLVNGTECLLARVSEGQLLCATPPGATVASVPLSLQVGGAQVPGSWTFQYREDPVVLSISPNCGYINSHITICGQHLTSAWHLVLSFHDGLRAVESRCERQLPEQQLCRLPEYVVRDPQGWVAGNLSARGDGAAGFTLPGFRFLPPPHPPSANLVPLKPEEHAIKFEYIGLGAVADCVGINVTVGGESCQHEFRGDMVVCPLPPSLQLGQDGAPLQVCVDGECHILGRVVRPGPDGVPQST
Protocol: (§1) Wells of 96-well EIA/RIA high binding plates (Costar, #2592) are coated with 100 μL of 1 μg/mL human c-Met extracellular domain (ECD)-Fc-Flis fusion (SEQ ID NO:72), RON-ECD-Fc (R&D Systems, #1947-MS), or PlexinA2-ECD-Fc (Abnova, Taipei, Taiwan #H00005362-P01) in coating buffer (BioFX Labs, # COAT-1000-01) overnight at 4° C. […] After the plates are washed, 100 μL/well of substrate solution (BioFx, #TMBW-1000-01) are added and the plates are incubated for 10 min. at room temperature. 100 μL/well of stop solution (BioFx, # LSTP-1000-01) are added to stop the reaction. The colorimetric signals are developed and read at 450 nm using a SpectraMax 190 plate reader (Molecular Devices, Sunnyvale, Calif.). c-Met antibody binding to c-Met, RON and PlexinA2 ECDs is proportional to color signal production.

PlexinA2-ECD-Fc [3] = molecular target: T1, PlexinA2-ECD-Fc; assay: ELISA, coated ECD-Fc, antibody 2777.778 ng/mL
Protocol: as §1

Human c-Met-Flis-Fc ECD [4] = molecular target: T2, Human c-Met-Flis-Fc ECD; assay: ELISA, coated ECD-Fc, antibody 2777.778 ng/mL
Protocol: as §1

T2 sequence (chain, as listed by the source limits assumed): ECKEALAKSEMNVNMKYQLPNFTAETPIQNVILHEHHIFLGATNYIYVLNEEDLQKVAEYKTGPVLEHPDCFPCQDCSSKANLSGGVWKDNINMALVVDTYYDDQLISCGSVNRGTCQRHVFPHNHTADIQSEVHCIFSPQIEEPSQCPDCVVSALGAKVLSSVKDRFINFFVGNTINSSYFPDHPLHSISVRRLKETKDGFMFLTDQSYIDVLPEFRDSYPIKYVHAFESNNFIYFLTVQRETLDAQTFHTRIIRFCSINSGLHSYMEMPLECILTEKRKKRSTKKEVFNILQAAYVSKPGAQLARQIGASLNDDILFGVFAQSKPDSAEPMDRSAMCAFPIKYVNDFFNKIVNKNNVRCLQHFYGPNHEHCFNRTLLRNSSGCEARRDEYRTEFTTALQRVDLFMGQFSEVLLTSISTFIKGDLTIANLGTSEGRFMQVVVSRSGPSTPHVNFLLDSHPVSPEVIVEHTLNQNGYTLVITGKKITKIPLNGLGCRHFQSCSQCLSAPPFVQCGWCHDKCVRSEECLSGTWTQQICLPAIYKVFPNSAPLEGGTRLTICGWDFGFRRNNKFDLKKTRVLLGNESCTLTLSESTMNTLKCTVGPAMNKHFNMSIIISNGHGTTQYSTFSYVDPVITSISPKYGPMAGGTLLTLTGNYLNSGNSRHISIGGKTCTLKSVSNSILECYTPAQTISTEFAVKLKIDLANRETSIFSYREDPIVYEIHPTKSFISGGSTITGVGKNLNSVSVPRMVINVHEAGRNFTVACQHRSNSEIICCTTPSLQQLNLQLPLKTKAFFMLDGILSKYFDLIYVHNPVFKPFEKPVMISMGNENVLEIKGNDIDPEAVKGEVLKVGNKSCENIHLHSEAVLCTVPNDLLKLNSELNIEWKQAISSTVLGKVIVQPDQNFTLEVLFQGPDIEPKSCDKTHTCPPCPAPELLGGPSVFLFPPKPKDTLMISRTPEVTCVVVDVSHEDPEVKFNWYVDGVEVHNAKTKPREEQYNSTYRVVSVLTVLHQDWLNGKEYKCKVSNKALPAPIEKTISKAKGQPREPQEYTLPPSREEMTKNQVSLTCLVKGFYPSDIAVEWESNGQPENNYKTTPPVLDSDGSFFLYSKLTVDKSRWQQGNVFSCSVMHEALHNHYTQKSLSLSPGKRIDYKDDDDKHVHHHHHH

B1: C8-6 (antibody, human IgG2, kappa, V domains shown)
VH: QVQLVQSGAEVKKPGASVKVSCKASGYTFTDYYMHWVRQAPGQGLEWMGRVNPNRGGTTYNQKFEGRVTMTTDTSTSTAYMELRSLRSDDTAVYYCARTNWLDYWGQGTTVTVSS
VL: DIQMTQSPSSLSASVGDRVTITCSVSSSVSSIYLHWYQQKPGKAPKLLIYSTSNLASGVPSRFSGSGSGTDFTLTISSLQPEDFATYYCIQYSGYPLTFGGGTKVEIKR
notes: Called IgG4, kappa; also called Mab C8-6
PlexinA2-ECD-Fc [1]
  Average A450 nm: 0.109 A450 nm
Human c-Met-Flis-Fc ECD [2]
  Average A450 nm: 0.322 A450 nm
RON-ECD-Fc
  Average A450 nm: 0.088 A450 nm
PlexinA2-ECD-Fc [3]
  Average A450 nm: 0.094 A450 nm
Human c-Met-Flis-Fc ECD [4]
  Average A450 nm: 4 A450 nm
